# Values of other authors, collected in publication PMC2645917 (Journal of medicinal chemistry, 2008).
# Settings: in vivo, iv
substance,measurement,value
exenatide,Half-life after i.v. injection,26 min
